Measurements as given in patent US20220089723A1 (UNIVERSITY HEALTH NETWORK, published 2022).

Target: T1, Human LILRB3 (human, UniProt O75022 24-631)
T1 construct: whole, on cells; Endogenous receptor on primary human PBMCs and whole blood cells, not a recombinant construct; also called CD85A; ILT5
Test: flow cytometry; human PBMCs and fresh whole blood stained with 3A3 and gated on cell subsets
Method: LILRB3 surface expression was measured on various hematopoietic subsets in the form of two-dimensional flow cytometry (FCM) representations called quantile contour plots (probability plots). Peripheral blood mononuclear cells (PBMCs) from a healthy human donor were stained with the LILRB3 3A3 antibody as well as antibodies specific for the indicated cell subset. FIG. 1A plots depict LILRB3 expression by gated CD3+CD4+T cells, CD3+CD8+ T cells or CD11b+ monocytes. In FIG. 1B, fresh whole blood from a healthy human donor was stained as in FIG. 1A. Plots depict LILRB3 expression by gated CD3+CD4+ T cells, CD3+CD8+ T cells, CD11b+ monocytes or CD11b+ granulocytes. Percentages of gated cells and of LILRB3+ cells within the gated population are depicted inside the plots (first and second numbers, respectively). […] Specificity of the LILRB3 staining was determined by staining all of the above cell subsets with an IgG1 isotype control antibody. Data are representative of several independent experiments utilizing different human blood samples.

T1 sequence (O75022 24-631): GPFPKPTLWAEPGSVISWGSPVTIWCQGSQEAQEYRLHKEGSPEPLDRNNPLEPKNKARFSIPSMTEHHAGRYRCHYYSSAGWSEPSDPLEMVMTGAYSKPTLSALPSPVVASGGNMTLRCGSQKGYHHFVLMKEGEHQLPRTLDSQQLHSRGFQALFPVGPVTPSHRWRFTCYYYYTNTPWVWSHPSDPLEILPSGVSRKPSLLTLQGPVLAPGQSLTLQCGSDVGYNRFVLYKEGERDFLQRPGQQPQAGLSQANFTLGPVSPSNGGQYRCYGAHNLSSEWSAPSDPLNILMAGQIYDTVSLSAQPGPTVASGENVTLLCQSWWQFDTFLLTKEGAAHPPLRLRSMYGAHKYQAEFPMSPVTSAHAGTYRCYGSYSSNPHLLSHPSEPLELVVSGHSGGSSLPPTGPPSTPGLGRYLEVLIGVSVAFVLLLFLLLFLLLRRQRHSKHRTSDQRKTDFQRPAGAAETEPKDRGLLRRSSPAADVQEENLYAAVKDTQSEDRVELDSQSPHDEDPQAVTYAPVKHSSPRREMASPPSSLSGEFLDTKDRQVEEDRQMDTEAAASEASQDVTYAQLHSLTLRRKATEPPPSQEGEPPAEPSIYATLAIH

binding result: binds
B1: LILRB3 3A3 antibody (antibody, V domains shown)
VH: QVQLQQSRTELMKPGASVKLSCKATGYTFTGYWIEWVKQRPGHGLEWIGEILPGSTNINYNERFKGKATITADTSSNTAYMQLSSLTTEDSAIYYCARWASVVVGDYWGQGATLTVSS
VL: QIVLTQSPAIMSASLGERVTMTCTASSSVSSSYLHWYQQKPGSSPKLWIYSTSNLASGVPARFSGSGSGTSYSLTISSMEAEDAATYYCHQYHRSPPTFGGGTKLEIKR
notes: the entries also seem to hold an N-terminal leader and part of the constant region
